This passage reports Kd, koff and kon results from paper PMC4612432 (The journal of physical chemistry. B, 2013).

Substitutions are numbered along the chain they refer to.

For assay [1], the target named is T1, Wild-type human lysozyme (human) (UniProt P61626).
T1 sequence: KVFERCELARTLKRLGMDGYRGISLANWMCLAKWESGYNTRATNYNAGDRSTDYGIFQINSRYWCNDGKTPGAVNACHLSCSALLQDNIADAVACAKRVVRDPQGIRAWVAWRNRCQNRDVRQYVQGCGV
Briefly: ITC.

For assay [2], the target named is T1, Wild-type human lysozyme (human). Briefly: SPR. Background: In SPR one partner is held on a chip, and binding of the other changes the refractive index at the surface.
For another assay, the target named is Wild-type human lysozyme (Homo sapiens, UniProt P61626). Briefly: SPR.

B1: cAb-HuL5G (VHH)
VHH: QVQLQESGGGSVQAGGSLRLSCSASGLSTTVMAWFRQAPGKEREGVAAIYTGDGFPYYADSVKGRFTISQDNAKNTVYLQMNSLKPEDTAMYYCAAKTGAFSYGSLWWMSRAYNHWGQGTEVTVSS
Usually Kd stands for the equilibrium constant for the complex coming apart. A high value points to a looser complex. A word on the koff: it is the first-order rate constant of dissociation. Read a high koff as a short-lived complex. By kon is commonly meant the rate constant with which the complex forms. A higher kon goes with faster complex formation. Regarding B1, the Kd in assay [1] worked out at 2500 nM. In addition, in assay [2], the Kd is 310 nM, the koff is 0.128 s⁻¹ and the kon turned out to be 410000 M⁻¹ s⁻¹.

B2: cAb-HuL5 (VHH)
VHH: B1 VHH with S23E, T76R, V77M, K85E, E121Q
In the assay with Wild-type human lysozyme, B2 yielded a Kd of 460 nM, a koff of 0.088 ± 0.009 s⁻¹ and a kon of 190000 M⁻¹ s⁻¹.
